Changes are numbered by the printed parent chain. In names and notes the source's numbering stands.
T1: ScPolη (Saccharomyces cerevisiae, UniProt Q04049 1-632)
T1 construct: DNA polymerase eta (Rad30), Saccharomyces cerevisiae, 632 aa, wild type; also called ScRad30; S. cerevisiae DNA polymerase eta; source: purified
T1 sequence (looked up): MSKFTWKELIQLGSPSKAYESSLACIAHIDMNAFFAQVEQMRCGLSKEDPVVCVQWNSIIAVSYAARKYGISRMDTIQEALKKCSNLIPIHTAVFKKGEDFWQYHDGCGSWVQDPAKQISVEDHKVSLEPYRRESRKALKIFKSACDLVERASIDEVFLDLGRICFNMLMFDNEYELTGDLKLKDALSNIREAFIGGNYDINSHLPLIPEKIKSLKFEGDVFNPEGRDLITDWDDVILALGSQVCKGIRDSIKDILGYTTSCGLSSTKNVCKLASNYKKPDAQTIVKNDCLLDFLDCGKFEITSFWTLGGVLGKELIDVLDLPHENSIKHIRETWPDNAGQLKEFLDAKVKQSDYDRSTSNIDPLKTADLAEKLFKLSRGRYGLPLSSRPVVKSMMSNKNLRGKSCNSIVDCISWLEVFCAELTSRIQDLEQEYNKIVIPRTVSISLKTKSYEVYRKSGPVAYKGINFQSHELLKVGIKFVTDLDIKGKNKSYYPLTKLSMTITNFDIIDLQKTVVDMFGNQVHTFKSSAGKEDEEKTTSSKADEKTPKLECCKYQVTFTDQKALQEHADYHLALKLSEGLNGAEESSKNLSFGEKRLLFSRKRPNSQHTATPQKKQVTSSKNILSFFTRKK

T2: ScPCNA (Saccharomyces cerevisiae, UniProt P15873)
T2 construct: made in house; host or cells: E. coli BL21-DE3
T2 sequence (P15873 1-258): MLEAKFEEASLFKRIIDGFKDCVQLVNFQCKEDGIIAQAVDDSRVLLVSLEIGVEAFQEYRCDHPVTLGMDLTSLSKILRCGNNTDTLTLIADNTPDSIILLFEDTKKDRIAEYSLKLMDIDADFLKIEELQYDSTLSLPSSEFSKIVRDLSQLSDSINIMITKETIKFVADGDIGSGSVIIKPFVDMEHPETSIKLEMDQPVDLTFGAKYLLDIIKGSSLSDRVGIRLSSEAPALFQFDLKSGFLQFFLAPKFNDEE

B1: CaPCNA (natural protein, Candida albicans, UniProt Q5AMN0 1-259, looked up)
chain: MLEGKFEEAALLKKVVEAIKDCVKKCNFNCSEHGITVQAVDDSRVLLVSLLIGQTSFSEYRCDRDVTLGIDLESFSKIIKSANNEDFLTLLAEDSPDQIMAILEEKQKEKISEYSLKLMDIDSEFLQIDDMEYDAVVNMPSSDFAKLVRDLKNLSESLRVVVTKDSVKFTSEGDSGSGSVILKPYTNLKNERESVTISLDDPVDLTFGLKYLNDIVKAATLSDVITIKLADKTPALFEFKMQSGGYLRFYLAPKFDDDE
notes: proliferating cell nuclear antigen (PCNA), Candida albicans; also called C. albicans PCNA; source: E. coli BL21-DE3, purified
B2: CaPCNA-90 (P253A, K254A) (natural protein)
chain: B1 chain with P253A, K254A
notes: source: E. coli BL21-DE3, purified
B3: 29-mer ubz peptide of CaPolη (607-635) (peptide)
peptide: KTKKCSRCKLSVDDPVEHNDYHIAMDLSN
notes: also called wild-type ubz peptide; WT UBZ peptide; source: synthetic peptide (China peptides Co Ltd, 98% purity)
B4: ScPCNA (natural protein, Saccharomyces cerevisiae, UniProt P15873 1-258, looked up)
chain: T2 sequence (P15873 1-258)
notes: proliferating cell nuclear antigen (PCNA), Saccharomyces cerevisiae; also called S. cerevisiae PCNA; source: E. coli BL21-DE3, purified
B5: ScPolη: Saccharomyces cerevisiae DNA polymerase eta (protein)
chain: T1 sequence (looked up)
modifications: left off: GST, N-terminal, state not stated
notes: Saccharomyces cerevisiae DNA polymerase eta

Experiments:
[1] = system: CaPCNA; assay: ITC binding to CaPCNA; set-up: species or system Candida albicans; conditions: 25 °C, pH 7.4, CaPCNA injected, about 10 μM Polη mutant in cell, negatives repeated at various concentrations
Text: To identify a region of CaPolη involved in PCNA interaction, we generated a deletion construct by inserting a stop codon at amino acid position 513 (K513) of CaPolη. […] The wild-type and truncated CaPolη were purified, and their interaction with CaPCNA was monitored by isothermal calorimetry (ITC) analysis. […] Since CaPolη functionally complements ScPolη and protects the fungal cells from UV-induced DNA damages ([17], [25], [26]), to further strengthen our finding, various Polη orfs were expressed under the constitutive ADH1 promoter in rad30Δ and rad30Δrev3Δ S. cerevisiae strains, and susceptibility to UV irradiation was determined.
To map the precise location of PCNA binding, another deletant CaPolη 1 to 601 aa was constructed that lacks the last 39 residues encompassing the ubz domain but retains Seq-3 and Seq-4 (Fig. 2A). […] To ascertain the function of ubz domain, two D626A and H624A, H628A of CaPolη mutants were generated and their ability to suppress UV sensitivity of Polη-deficient S. cerevisiae strains was examined. […] Similarly, UV-induced mutation rate was estimated by counting the number of canavanine-resistant colonies of various S. cerevisiae strains harboring CaPolη constructs. […] Subsequently, ITC and GST-pull-down assays were carried out to determine the role of ubz in PCNA binding.

[2] = target: wild-type CaPolη protein (1–640 aa) (Candida albicans); assay: ITC; PCNA (200 μM, counted as a trimer) in the syringe, Polη (10 μM) or ubz peptide (20 μM) in the cell; 25 injections of 1.5 μl; 25 °C; 20 mM HEPES pH 7.4, 150 mM NaCl; single-site binding model
[3] = target: B3; assay: as above; conditions: both partners purified
[4] = target: the molecule itself; assay: SEC; about 10 μg of purified CaPCNA and CaPolη (1:1 M ratio) incubated 60 min at room temperature, or CaPCNA alone; Superdex 200 PC3.2/30; 50 mM HEPES pH 7.5, 150 mM NaCl, 10% glycerol; 0.05 ml/min, 4 °C
[5] = target: B2; assay: ITC; PCNA (200 μM, counted as a trimer) in the syringe, Polη (10 μM) or ubz peptide (20 μM) in the cell; 25 injections of 1.5 μl; 25 °C; 20 mM HEPES pH 7.4, 150 mM NaCl; single-site binding model; conditions: both partners purified
[6] = target: B4; assay: as above; conditions: both partners purified
[7] = target: B1; assay: as above; conditions: both partners purified
[8] = target: T1, ScPolη; assay: as above; conditions: both partners purified
[9] = target: T2, ScPCNA; assay: ITC binding to ScPCNA; conditions: 25 °C
Text: To understand whether any sequence or structural differences of the ubz domains in these Polηs have an impact on functional differences, we used the solution structure of the ubz domain of human Polη as a template and determined the structure of the ubz domain of both Sc- and Ca-Polηs by computational modeling (Fig. 3A). […] The two cysteines are located on the fingertip made by the two β-strands, and the two histidines are located on the α-helix. […] Next we examined whether the ubz peptide can inhibit the binding of PCNA to Polη. An equimolar mixture of the ubz peptide and PCNA was injected into the calorimetric cell having CaPolη to examine the interference of peptide on the interaction between PCNA and Polη by ITC.
All the purified proteins and purchased peptides were dialyzed overnight against 1 l of a buffer containing 20 mM HEPES (pH 7.4) and 150 mM NaCl at 4 °C to ensure complete removal of DTT and glycerol from the protein storage buffer, which could affect the heat exchange while they interact. ITC assays were performed using a Malvern MicroCal PEAQ-ITC calorimeter. Before the experiment, the cell and the syringe were thoroughly washed with water, followed by cell rinsing with a buffer. A control run was carried out to make sure that the buffer is not participating in heat change where the cell was filled with 300 μl of a buffer and concentrated CaPCNA or ScPCNA protein (200 μM) in the syringe. ITC was performed using various Polηs or UBZ peptide or UBZ mutant peptide in the sample cell and CaPCNA or ScPCNA or a mixture of CaPCNA+ WT UBZ peptide in the syringe. Twenty-five injections of 1.5 μl of protein from the syringe were given at intervals of 120 s with an initial delay of 120 s at 25 °C. The data were analyzed to determine the various kinetic parameters using a single-site binding model provided in the ITC analysis software package.

For “607-KTKKCSRCKLSVDDPVEANDYAIAMDLSN-635 [mutant peptide]”, the “Binding to CaPCNA by ITC (in words)” value [1] was “did not show any sign of binding”.

B1 gave a Kd [2] of 7.15 µM, a dH [2] of -22.1 kcal/mol and a stoichiometry N [2] of 0.315. The dH [3] was -80 kcal/mol, the “stoichiometry N” value [3] was 0.355 and the “stoichiometry N” value [4] was 3.

B2 was tested, and the dH [3] was -79.9 kcal/mol and the “stoichiometry N” value [3] was 0.316.

In the case of B3, the Kd [5] is reported as 39 µM, the Kd [6] is reported as 15.6 µM and the Kd [7] is reported as 19.8 µM.

B4 was tested, and the dH [3] was -24.2 kcal/mol, the “stoichiometry N” value [3] was 0.34 and the Kd [8] was 15.1 µM. For the same molecule, the dH [8] was -79.9 kcal/mol and the “stoichiometry N” value [8] was 0.31.

Molecule B5 has a Kd ([9]; 20 mM HEPES pH 7.4, 150 mM NaCl, syringe ScPCNA 200 μM, cell 10 μM ScPolη or 20 μM ubz peptide, single-site model, repeated twice) of 15.1 µM, a Stoichiometry ([9]; pH 7.4, ScPCNA 200 μM in syringe) of 0.31 and a ΔG ([9]; pH 7.4, ScPCNA, unit not given) of −6.58. For the same molecule, the ΔH ([9]; pH 7.4, ScPCNA, unit not given) was −79.9 and the “−TΔS” value ([9]; pH 7.4, ScPCNA, unit not given) was 73.3.
